Data published in article PMC4562812.

Biological target: full-length recombinant H7 hemagglutinin (rH7) of A/Anhui/1/2013 (H7N9) virus (influenza A virus A/Anhui/1/2013 (H7N9))
Assay: SEC

full-length recombinant H7 hemagglutinin (rH7) of A/Anhui/1/2013 (H7N9) virus (natural protein)
stoichiometry N: 3
